These results are taken from article doi:10.1101/705442.

This assay has as its target extracellular matrix proteins (ELISA of Figure S3: 'In each case'). Description: ELISA. On the technique in general: An ELISA detects its analyte on a solid surface through an enzyme-linked reagent.

As for “capillary morphogenesis gene 2 (ANTXR2/CMG2), biotinylated CMG2-AviTag construct (from UniProt P58335 34-489) (receptor)”, the Kd (commonly the free concentration of one partner at which half of the binding sites on the other are occupied at equilibrium, for simple one-to-one binding) lay within 0.5 to 1 µM.
